Here are results for one molecule from paper doi:10.1101/2021.12.14.472590 (bioRxiv, 2021).

The target in the assay is human β-actin (recombinant G-actin) (human, UniProt P60709 1-375). The assay is described as follows: NMR titration.

B1: ADAP1-381 (N-terminal intrinsically disordered fragment of ADAP) (domain or fragment)
chain: MAKYNTGGNPTEDVSVNSRPFRVTGPNSSSGIQARKNLFNNQGNASPPAGPSNVPKFGSPKPPVAVKPSSEEKPDKEPKPPFLKPTGAGQRFGTPASLTTRDPEAKVGFLKPVGPKPINLPKEDSKPTFPWPPGNKPSLHSVNQDHDLKPLGPKSGPTPPTSENEQKQAFPKLTGVKGKFMSASQDLEPKPLFPKPAFGQKPPLSTENSHEDESPMKNVSSSKGSPAPLGVRSKSGPLKPAREDSENKDHAGEISSLPFPGVVLKPAASRGGPGLSKNGEEKKEDRKIDAAKNTFQSKINQEELASGTPPARFPKAPSKLTVGGPWGQSQEKEKGDKNSATPKQKPLPPLFTLGPPPPKPNRPPNVDLTKFHKTSSGNSTS
As for B1, the binding result is “binds”.
